Test results reported in US20230381333A1 (HANMI PHARM, published 2023).
Bridge positions count the residues as written; N and C are the ends. Square brackets hold non-standard residues; d marks the D form. Ends that are not written are not given here. * marks the point of attachment. Acetyl(2-(4-imidazolyl)) = O=C(Cc1c[nH]cn1)*; Aib = CC(C)(N)C(=O)O

Key:
Assay in all cases: cell-based or functional assay
human GLP-1 receptor = human GLP-1 receptor (human, UniProt P43220 24-463)
human GCG receptor = human GCG receptor (human, UniProt P47871 26-477)
human GIP receptor = biological target: T1, human GIP receptor (human, UniProt P48546 22-466)
T1 sequence (looked up): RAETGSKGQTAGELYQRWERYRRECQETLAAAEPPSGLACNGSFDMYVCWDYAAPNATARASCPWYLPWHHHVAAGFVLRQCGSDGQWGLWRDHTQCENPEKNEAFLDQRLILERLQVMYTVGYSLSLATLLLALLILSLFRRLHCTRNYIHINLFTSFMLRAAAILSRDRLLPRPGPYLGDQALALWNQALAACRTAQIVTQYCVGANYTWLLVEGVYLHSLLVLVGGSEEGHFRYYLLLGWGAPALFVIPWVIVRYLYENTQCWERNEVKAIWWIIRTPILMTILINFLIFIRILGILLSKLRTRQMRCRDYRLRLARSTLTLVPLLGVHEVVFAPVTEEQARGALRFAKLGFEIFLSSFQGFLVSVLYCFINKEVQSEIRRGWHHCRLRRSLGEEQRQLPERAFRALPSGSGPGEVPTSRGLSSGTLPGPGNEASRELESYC

Chain of human GCG receptor (P47871 26-477): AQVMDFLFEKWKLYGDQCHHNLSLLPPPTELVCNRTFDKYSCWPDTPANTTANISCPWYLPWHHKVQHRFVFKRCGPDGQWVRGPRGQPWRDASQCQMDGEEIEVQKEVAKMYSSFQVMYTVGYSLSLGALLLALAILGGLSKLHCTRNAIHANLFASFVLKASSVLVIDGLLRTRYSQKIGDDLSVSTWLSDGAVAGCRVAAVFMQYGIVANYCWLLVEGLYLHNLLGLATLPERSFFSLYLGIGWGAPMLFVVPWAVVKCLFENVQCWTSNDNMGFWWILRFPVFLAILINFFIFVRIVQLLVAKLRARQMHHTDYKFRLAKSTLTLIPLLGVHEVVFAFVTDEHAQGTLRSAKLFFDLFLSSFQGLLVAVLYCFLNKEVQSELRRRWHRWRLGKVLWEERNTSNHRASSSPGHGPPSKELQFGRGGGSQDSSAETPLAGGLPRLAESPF

Binder	In vitro activity compared to native-type peptide (%), vs GLP-1 (human GLP-1 receptor)	In vitro activity compared to native-type peptide (%), vs Glucagon (human GCG receptor)	In vitro activity compared to native-type peptide (%), vs GIP (human GIP receptor)
Y[Aib]QGTFTSDYSKALDEKAAKEFVNWLLDHHPSSGQPPPSC (bridge 16-20) [triple agonist of SEQ ID NO: 98]	28.1%	8.2%	47.1%
Y[Aib]QGTFTSDYSKYLDEKRAKEFVQWLLDCHPSSGQPPPS (bridge 16-20) [triple agonist of SEQ ID NO: 97]	10.5%	62.8%	2.6%
H[Aib]QGTFTSDVSSYLDGQAQKEFIAWLVKGC [triple agonist of SEQ ID NO: 2]	5.9%	< 0.1%	< 0.1%
{Acetyl(2-(4-imidazolyl))}-[Aib]QGTFTSDYSIAMDEIHQKDFVNWLLAQKC (bridge 15-19) [triple agonist of SEQ ID NO: 92]	0.8%	< 0.1%	0.4%
[Acetyl(2-(4-imidazolyl))]GQGTFTSDLSKQMDEERAREFIEWLLAQKPSSGAPPPSHG [triple agonist of SEQ ID NO: 17]	0.2%	< 0.1%	< 0.1%
Y[Aib]QGTFTSDYSKYLDEKRAKEFVQWLLDHCPSSGQPPPS (bridge 16-20) [triple agonist of SEQ ID NO: 96]	34.4%	195%	5.2%
[Acetyl(2-(4-imidazolyl))]GEGTFTSDLSKYLDSRRQQLFVQWLKAGGPSSGAPPPSHG [triple agonist of SEQ ID NO: 11]	1.4%	< 0.1%	< 0.1%
{Acetyl(2-(4-imidazolyl))}-[Aib]QGTFTSDYSKYLDEKRQKEFVQWLLNTKC (bridge 15-19) [triple agonist of SEQ ID NO: 88]	9.6%	0.3%	< 0.1%
{Acetyl(2-(4-imidazolyl))}-[Aib]QGTFTSDYSIAMDEIHQKDFVNWLLNTKC (bridge 15-19) [triple agonist of SEQ ID NO: 94]	0.5%	< 0.1%	< 0.1%
[Acetyl(2-(4-imidazolyl))]GQGTFTSDLSKQMDSERAREFIEWLKNTGPSSGAPPPSHG [triple agonist of SEQ ID NO: 18]	< 0.1%	< 0.1%	< 0.1%
[Acetyl(2-(4-imidazolyl))]GEGTFISDLSKYMDEQAVQLFVEWLMAGGPSSGAPPPSHG [triple agonist of SEQ ID NO: 12]	0.4%	< 0.1%	< 0.1%
Y[Aib]QGTFTSDYSKALDEKAAKDFVNWLLDQHPSSGQPPPSC (bridge 16-20) [triple agonist of SEQ ID NO: 102]	23.3%	29.5%	58%
{Acetyl(2-(4-imidazolyl))}-[Aib]EGTFTSDYSIAMDEIHQKDFVNWLLAQKC (bridge 15-19) [triple agonist of SEQ ID NO: 90]	7.4%	< 0.1%	< 0.1%
{Acetyl(2-(4-imidazolyl))}-[Aib]EGTFTSDYSIAMDEIHQKDFVDWLLAEKC (bridge 15-19) [triple agonist of SEQ ID NO: 91]	31.9%	16.8%	0.3%
Y[Aib]QGTFTSDYSKALDEKAAKDFVNWLLDHHPSSGQPPPSC (bridge 16-20) [triple agonist of SEQ ID NO: 99]	20.9%	14.9%	57.7%
[Acetyl(2-(4-imidazolyl))]GQGTFTSDYSIQLDEIAVRDFVEWLKNGGPSSGAPPPSHG [triple agonist of SEQ ID NO: 14]	28%	< 0.1%	< 0.1%
Y[Aib]QGTFTSDYSKALDEKAAKEFVNWLLDQHPSSGQPPPSC (bridge 16-20) [triple agonist of SEQ ID NO: 101]	23.2%	13.9%	40.1%
Y[Aib]QGTFTSDYSKALDEKAAKEFVQWLLDQHPSSGQPPPSC (bridge 16-20) [triple agonist of SEQ ID NO: 100]	42.2%	12.7%	118%
{Acetyl(2-(4-imidazolyl))}-[Aib]QGTFTSDYSKYLDEKRQKEFVNWLLAQC (bridge 15-19) [triple agonist of SEQ ID NO: 86]	28.4%	0.4%	0.2%
[Acetyl(2-(4-imidazolyl))]GQGTFTSDLSIQYDSEHQRDFIEWLKDTGPSSGAPPPSHG [triple agonist of SEQ ID NO: 19]	< 0.1%	< 0.1%	< 0.1%
{Acetyl(2-(4-imidazolyl))}-[Aib]QGTFTSDYSIAMDEIHQKDFVNWLLAQC (bridge 15-19) [triple agonist of SEQ ID NO: 85]	4.3%	< 0.1%	0.3%
H[Aib]QGTFTSDVSKYLDGQAAQEFVAWLLAGGGPSSGAPPPSC [triple agonist of SEQ ID NO: 10]	46%	< 0.1%	< 0.1%
{Acetyl(2-(4-imidazolyl))}-[Aib]QGTFTSDYSKYLDEKRQKEFVNWLLAQKC (bridge 15-19) [triple agonist of SEQ ID NO: 93]	5.7%	0.3%	0.7%
{Acetyl(2-(4-imidazolyl))}-[Aib]QGTFTSDYSKYLDEKRQKEFVQWLLDTKC (bridge 15-19) [triple agonist of SEQ ID NO: 89]	7.1%	0.7%	< 0.1%
Y[Aib]QGTFTSDYSKYLDEKRAKEFVQWLLCHHPSSGQPPPS (bridge 16-20) [triple agonist of SEQ ID NO: 95]	2.1%	0.4%	< 0.1%
{Acetyl(2-(4-imidazolyl))}-[Aib]QGTFTSDYSIAMDEIHQKDFVNWLLNTC (bridge 15-19) [triple agonist of SEQ ID NO: 87]	0.9%	< 0.1%	< 0.1%
[Acetyl(2-(4-imidazolyl))]GQGTFTSDLSKQMDSEAQQLFIEWLKNGGPSSGAPPPSHG [triple agonist of SEQ ID NO: 16]	2.1%	< 0.1%	< 0.1%
[Acetyl(2-(4-imidazolyl))]GEGTFISDYSIQLDEIAVQDFVEWLLAQKPSSGAPPPSHG [triple agonist of SEQ ID NO: 13]	< 0.1%	< 0.1%	< 0.1%
